This is an account of results in the DeepSol protein solubility set.

This data set is described as follows: soluble on expression in E. coli; label from the status in PepcDB or PDB records.
Take “MSLAPRPRILICEDDPDIARLLNLMLEKGGFDSDMVHSAAQALEQVARRPYAAMTVDLNLPDQDGVSLIRALRRDSRTRDLAIVVVSANAREGELEFNSQPLAVSTWLEKPIDENLLILSLHRAIDNMAEGKPRILHVEDDLDIQRIAAAIAQNFATFEFACTLQEARDQLASHHYDLVLLDLTLKDGSGWELLSTIEALDPAPPVVVFSASKLNMMESQRVEAVLVKADTSNEELIRVLQRVLDDSLWGTVDSPLSEGHHHHHH”: the “soluble on expression in E. coli” value is “soluble”.
As for “MLRGIVVVDFSHYLPGPFASWRLAQLGAEVIKIEPPSGDRLRPFAEGRLFAAYNAGKKSIGLDLKTDAGREQARRLAARADVVIESFRPGVMARLGLGYDDMCRMNEQIIYCSISGFGQQSGRSLLGSHDLNYMALSGLLAQLADERGRPVHPKITLADFIGGMAAAERILAALFARERTGKGAHLDVSLVDGLAAMMAGHFAIEHGGGPKTGLSELSGEVVCYQLYETKDGRYMSLAALEPHFWRRFCEAVGHPEWTEAQWAPARSGEAVYDELAALFREKTLDEWSAFAEAVDVCLAPVLETGEAKALFADSRLRHLVRLQPGGVWTAAHGPDGQWGGGEPPKVNEHAHLVKGEE”, the “soluble on expression in E. coli” value is “not soluble”.
With “MSEMQMDCALDLMRRLPPQQIEKNLIDLIDLAPDLCEDLLSSVDQPLKIAKDKEHGKDYLLCDYNRDGDSYRSPWSNSYYPPLEDGQMPSERLRKLEIEANYAFDQYREMYYEGGVSSVYLWDLDHGFAAVILIKKAGDGSKMIRGCWDSIHVVEVQEKTTGRTAHYKLTSTAMLWLQTNKQGSGTMNLGGSLTRQQEQDANVSESSPHIANIGKMVEEMENKIRNTLNEIYFGKTKDIVNGLRSTQSLADQRQQAAMKQDLAAAILRRNVKPESN”, the “soluble on expression in E. coli” value was “not soluble”.
To “MARIIRRPLNLTAAVRFRLSPLSPFSGNSGSINSETTSWSELIRVPSLVEGCDYKHWLVLMKPPNGYPTRNHIVQSFVETLAMALGSEEEAKRSIYSVSTKYYYAFGCRIHEPLTYKIRSLPDVKWVLPDSFIVDGDNRYGGEPFVDGEVVPYDEKYHADWLRDQTDEDAKSGVVKKKHRRKRKKKLI” belongs “soluble”; to “MSDVNAPAGLAALEARLQQDLAWLDLPAKPWVKPRTNAGQAVLDVAIIGGGMAGLALAAELRHLGVAAVIFDQSPAGFEGPWATTARMETLRSPKQLTGPALGLPALTFRAWYEAQFGADGWAALDKIPRLQWAEYLRWYRKALALDVRNEHRVSRVAPRTDGLVELDIMTPGQTRFMLARHVVLATGRDGLGGPWVPDFARQLPDHLWTHSAAGLQDDWFEGRRVAVIGGGASAMDSAATALEAGAQRVDLLIRRAELPRVNKGKGVGNPGMVHGYWRLPDIWKWRIRHYLNRQQVPPPRGSTLRVSRSGRARFLLDNPVLAVEANPAGGVWLQTSKARVEADFVVFATGFRTDFELRPEFAPFSSHIRVWQDRFEAPEGEADSELAVLPDLGNCFEFQEKTPGACPGLNHIHCFSYPAALSYGAVSGDIPAISEGSKRLAHALIGLLFNEDIALHFESMRSYAEPELLGDEWVASEPGTEELRPLEHHHHHH”, “not soluble”; to “GTVEGVVGVTREVTEQRKHEMEIARQRSILKAQQEAVIDGILVVDEDDTIVSYNERFVDMWDIPRDIVERGDEEIALEWAMEQVAEPEAFRVDVEALYEDPETTARDELELADGRVFDRYTAPVVAEDGTRFGRLWAFRD”, “not soluble”.
Regarding “MDSKILTMFNQGKHEEAIQAAVKAIDAAPDDPKRYAMLATMLISIKALDQAGELLAKARQLFPEDLELQYTAGLFAYAQADFAAAVSWFAKVRTDQTLKNDATYMLALSYQQAGQPTKALAFALTAHDLAPKQLDTALLAADLLMANDVFDAAARVLKPLLATEQPQVLFTYGMALSAAGKDGSHYLNKAKALDPKGYDQKANIVADINRFLRLQEGLEHHHHHH”, the “soluble on expression in E. coli” value is “not soluble”.
Consider “MAHHHHHHMADSSCTSAAASVATAAPAFDFKPLQKSNVDLFATAPQVKKLTRREKDKMLRELEVKRAKPRAVDDSSGAAGKGRKGQPRQSDRSAAVAEVVRSATISSSSDDASGIGNKGEKKKSLFETVFDTKEVEKELAAQEDRRSRKRSKKQVLRHALHSNEEEDARTVFVGNLPNTIHKRDVEKIFKSCGSITAVRIRCQALEELDEQHQNMGRAVRVLRGEIKKDAKYSATAYVLFDSAKSIASALEKNGLIFHNRHIVVTTMDVESRAYPPETSIFLGNVAYNTTEEDVWSFFQEHGIADVKRVRLVRDRETGDCKGFGYVEFMHASSVQPAIETRGDKLNGRELRIVHVNKSKEVKVATKSRREKRRSEHAGGRGGAEACKRSRSGGDGDGGSRGSAGYSNFKKPRTDSDLPSWAGLTTNPRRKMPKDLRPLVEGKVEFKPRGPRAPVKRKTRNPEK”, for which the “soluble on expression in E. coli” value is “soluble”.
As to “QVQLQQPGTELVRPGASVILSCKASGYTFTSYWINWVKQRPGQGLEWVGNIFPSDSYTNYNQKFKDKATLTVDKSSSTAYMQVNSPTSEDSAVYYCTRGARDTWFAYWGQGTLVTVSVAKTTPPSVFPLAPGSAAQTNSMVTLGCLVKGYFPEPVTVTWNSGSLSSGVHTFPAVLQSDLYTLSSSVTVPSSTWPSETVTCNVAHPASSTKVDKKIVPRDC”, the “soluble on expression in E. coli” value is on record as “soluble”.
To “MKKVLIVFGTRPEAIKMAPLVQQLCQDNRFVAKVCVTGQHREMLDQVLELFSITPDFDLNIMEPGQTLNGVTSKILLGMQQVLSSEQPDVVLVHGDTATTFAASLAAYYQQIPVGHVEAGLRTGNIYSPWPEEGNRKLTAALTQYHFAPTDTSRANLLQENYNAENIFVTGNTVIDALLAVREKIHTDMDLQATLESQFPMLDASKKLILVTGHRRESFGGGFERICQALITTAEQHPECQILYPVHLNPNVREPVNKLLKGVSNIVLIEPQQYLPFVYLMDRAHIILTDSGGIQEEAPSLGKPVLVMRETTERPEAVAAGTVKLVGTNQQQICDALSLLLTDPQAYQAMSQAHNPYGDGKACQRIADILAK” belongs “not soluble”.
Turning to “MSKILVFGHQNPDSDAIGSSYAFAYLAREAYGLDTEAVALGEPNEETAFVLDYFGVAAPRVITSAKAEGAEQVILTDHNEFQQSVADIAEVEVYGVVDHHRVANFETASPLYMRLEPVGSASSIVYRMFKEHGVAVPKEIAGLMLSGLISDTLLLKSPTTHPTDKVIAPELAELAGVNLEEYGLAMLKAGTNLASKSAEELIDIDAKTFELNGNNVRVAQVNTVDIAEVLERQAEIEAAIEKAIADNGYSDFVLMITDIINSNSEILAIGSNMDKVEAAFNFVLENNHAFLAGAVSRKKQVVPQLTESFNA”, the “soluble on expression in E. coli” value is reported as “soluble”.
Consider “MRKMKKMDADTLTAILAFQRLSGTGKSLLEGAAKDAEAGRYSIIAINPVHEIKVYQHDYYIDGTHQVVADPLKEIELFIEKAREDELELPLDSGAIGYVGYDVIALYEDLGEIPVETRDIPDIRFYVYESFVIMDHQAEELILVQDNCYSGRSEADLDKALESMLTELTTPKKDEHKAVHVPKMSYKSNYTKDEYMGLVKKAKTYIQEGDFFQIVLSQRLEADFTVKPFDYYRKLRLLNPSPYLYFIDFGDTVLIGSSPESLIKTKGRTVITNPIAGTRRRGATKQEDELLASELLSDEKELAEHRMLVDLGRNDIGKIAETGSVHVPVYLTIERYRFLMHLVSVVEGTLKTGLTAIDALRSTLPAGTVSGAPKIRAMERIYEWENVKRGPYAGAVGYLTKNGDSDFALSIRTMVLHNGKAYVQAGAGIVYDSDPESEYLETLQKAKALLEVGE”, for which the “soluble on expression in E. coli” value is on record as “not soluble”.
Consider “MGSDKIHHHHHHMSEILVLGGGMVGISTALELQARGHAVTVVDRKAPGQETSYGNAGLIQAEAAEPYAMPRALPEILGILSGRSNDVIWSLRGVLSQLPALWQYYRYSHPHRHLALSQPNAHLIRTACADHDRWITAAAAQDLIAQDGYLSVFQDAAMFDSLASDLERLRQSYGVEATAMSGPQLCKMEPLYQRPPVGGIHWRDVWSCAAPGELVARYAALFQSRGGEICTGDASTLRPEGSAWALMSEAGRLHGEHAVIALGPWTPPILAQLGYRVRMIMKHGAHRMYPTGPKLRRPVHDAQHGIVLSSMKGGLRMTCGVALEASGRVPDARQLDRGAKGLAAYMDLGTAEGGPIWHGTRPFLPDMLPMVGAAPRHDRLWFHFGHGHQGFTLGPTTARHLGALIDGGDSAGIAALLPQNRPAVLS”, for which the “soluble on expression in E. coli” value was “not soluble”.
With “MSLKKDYGSQEDFTQVWNTTMKGLKCCGFTNYTDFEDSPYFKENSAFPPFCCNDNVTNTANETCTKQKAHDQKVEGCFNQLLYDIRTNAVTVGEGHHHHHH” the entry was “soluble”.
As for “MRKLTAMLVASSLALGAAGLAHANEAPKGPGSEHKMMMKEGREHRGMMGSDAMFKELNLTEAQKQQIKDIMKDSREKMHKAMQDDRRDMHSLVASDTFDAAKAQAQLDKADAAHKARMLSGLETKNKIYNVLTPEQKKQYNDSFEKRLTQPPKPDGKPVPAELEHHHHHH”, the “soluble on expression in E. coli” value is recorded as “soluble”.
For the sequence “SNNCKENFLTSRYNKPVDEKQYNIPGKVTITTLQNIPVIYKRIVGSYKELELTNPLSELFQYGMEHDLLDKDSSFPLTIYHSHPDITTADNQRASSCIIIKQNVKQLDSEEIGLMEIPSGLYGVIHFEIRQKEYPDAWDFVYGNWLPSSGYLPANSFPFEVYLNNPLEDPLQKHIVDIYIPIEPIN”, the “soluble on expression in E. coli” value is on record as “not soluble”.
For “MSLGRIYRGVEVGDVALGGKTPEEAREIVLRRAEGALERVELRGGPEGEISFDARRMGIDYKVRETVQAAYAVGREGNLLERLGERLRAAYGTVQIEPRVDYRPSVARQRIEEVASRLDRPPRQAEVNVYGSEVDVVGSREGYRVDVEATMRSVGEAVEDMSGEARLVGRVLEPEYTTAEAERAAERARRALDGELVLTYEGRRWTVSPAAIGDSLDITARDGEFRVGVDRDRLRENLSGVYAAINQEPVEAGYEISGEQITVTPSRTGRAIQDEKLLGAIEEGIFEGRREYRIPVAVDRPELTTAEAERLKPTDLLATYQTNYLTYDDSPGRVENLEIASEAVDGTLLAPGEVFSFNELAAPLDYHDTKVIINGRVDTAEGGGLCQVSSTLYMAANLAGLDVIERHPHYAELPYIRPGFDATVWFGALDMKFKNTSPGYILIREWVDRSTGTVNAAIYGRPSGIEVDMRSEKVSETVDEEGNPVTTWITYQTVRKNGEVVFDGVLHKDVYKYLKPAAPDAEGHHHHHH”, the “soluble on expression in E. coli” value is reported as “soluble”.
To “MPKFEVPDGWTVQAFRFTLDPTEDQAKALARHFGARRKAYNWTVATLKADIQAWHASGTVTAKPSLRVLRKRWNTVKDDVCVNTETGVAWWPECSKEAYADGIAGAVEAYWNWQTSRAGKRAGKRVGFPRFKRKGRDQDRVSFTTGAMRVEPDRRHLTLPVIGTVRTHENTRRIERLIKAGRARVLAISVRRNGTRLDASVRVLVQRPQQPKVVHPGSRVGVDVGVRRLATVATADGTAIEQVENPRPLGAALRELRHVCRARSRCTKGSRRYRERTTQISRLHRRVNDVRTHHLHVLTTRLAQTHGRIVVEGLDATEMLRQKGLPGARARRRGLSDAALGTPRRHLSYKTVWYGSALVVADRWFPSSKTCHACRHVQDIGWDEQWQCDRCSVVHQRDDCAAINLARYEETSSIVGPVGAAVKRGADRKTGPRPAGGCEARKGSSPKAAEQPRDGVQVA” belongs “not soluble”.
Turning to “MNISVFDLFSIGIGPSSSHTVGPMLAANAFLQLLEQKNLFDKTQRVKVELYGSLALTGKGHGTDKAILNGLENKAPETVDPASMIPRMHEILDSNLLNLAGKKEIPFHEATDFLFLQKELLPKHSNGMRFSAFDGNANLLIEQVYYSIGGGFITTEEDFDK”, the “soluble on expression in E. coli” value is “not soluble”.
With “GSVSPTFQVVNSFAPVQECSTQLDIVIVLDGSNSIYPWESVIAFLNDLLKRMDIGPKQTQVGIVQYGENVTHEFNLNKYSSTEEVLVAANKIVQRGGRQTMTALGIDTARKEAFTEARGARRGVKKVMVIVTDGESHDNYRLKQVIQDCEDENIQRFSIAILGHYNRGNLSTEKFVEEIKSIASEPTEKHFFNVSDELALVTIVKALGERIFALEALERPHRD” the entry was “soluble”.
